Experimental findings from patent publication US12123009B2, “Methods and compositions for PPO herbicide tolerance in plants” (Monsanto Technology LLC, priority 2015, dated 2024) are described below.

Data set [1] has as its system C=Cc1c2[nH]c(c1C)Cc1[nH]c(c(CCC(=O)O)c1C)Cc1[nH]c(c(C)c1CCC(=O)O)Cc1[nH]c(c(C)c1C=C)C2. Put plainly: purified protein, by the assay type. The following applies: other: apparent Km for protoporphyrinogen, pH 7.4, 37° C.
Data set [2] has as its system H_N60 (SEQ ID NO: 3), microbial HemG protoporphyrinogen oxidase. Briefly: PPO enzyme assay (bacterial extract). To be noted: apparent Km for protoporphyrinogen; pH 7.4, 37° C.
Data set [3] concerns H_N110 (SEQ ID NO: 10), microbial HemG protoporphyrinogen oxidase. Put plainly: PPO enzyme assay (bacterial extract). To be noted: apparent Km for protoporphyrinogen; pH 7.4, 37° C.
The test system of data set [4] is Waterhemp (Amaranthus tuberculata) protoporphyrinogen oxidase (PPO), wild type. Briefly: PPO enzyme assay (plastid extract). To be noted: apparent Km for protoporphyrinogen; pH 7.4, 30° C. Type of data set: biochemical.
Data set [5] concerns Soybean (Glycine max) protoporphyrinogen oxidase (PPO), wild type. Briefly: PPO enzyme assay (plastid extract). Type of data set: biochemical. To be noted: apparent Km for protoporphyrinogen; pH 7.4, 30° C.
Data set [6] relates to Maize (Zea mays) protoporphyrinogen oxidase (PPO), wild type. Put plainly: PPO enzyme assay (plastid extract). The format is biochemical. The following applies: apparent Km for protoporphyrinogen; pH 7.4, 30° C.
Data set [7] deals with soybean (A3555), non-transgenic or expressing H_N10 (SEQ ID NO:4). Put plainly: R0 soybean sprayed with flumioxazin. Type of data set: in vivo. To be noted: 210 g/ha, V3, 8 days. On the procedure:
In soybean, excised embryos (A3555) were transformed with the transformation constructs 1 and 11 using A. tumefaciens and standard methods known in the art. […] Regenerated R0 transgenic plantlets were grown in the greenhouse. […] The herbicide was sprayed at the V3 developmental stage with three fully developed trifoliate leaves and injury ratings were assessed 8 days after treatment. The percentage of plants that were deemed highly tolerant (15% or less injury) was noted.

Data set [8] concerns hemG knockout E. coli strain. Type of data set: cell-based. To be noted: LB liquid medium, acifluorfen (1 mM), flumioxazin (0.5 mM), lactofen (0.5 mM), fomesafen (1 mM), S-3100 (100 uM).
Data set [9] has as its system hemG knockout E. coli strain. Type of data set: cell-based. To be noted: LB medium plates (heme-free).
In data set [10] the test system is F1 maize. Briefly: Efficacy field trial of F1 maize. The following applies: F1 transgenic maize greenhouse and field data. Type of data set: in vivo. On the procedure: This F1 population was segregating (50% hemizygous and 50% null) and selection for transgenic plants was not conducted prior to injury ratings. The overall average injury ratings for such a population are expected to be higher than a homogenous transgenic population since it is difficult to discern non-transgenic plants from transgenic plants. The trials were conducted at two locations with two replicates and 3 treatments per construct. Non-transgenic maize plants were used as a negative control. The herbicide application treatments were as follows: Treatment 1 was 0.036 lb ai/acre S-3100 applied at V2 followed by (fb) V4 fb V8; Treatment 2: was 0.072 lb ai/acre S-3100 applied at V2 fb V4 fb V8; Treatment 3: was 0.144 lb ai/acre S-3100 applied at V2 fb V4 fb V8. Crop Injury Percent ratings were assessed at the V2 growth stage (CIPV2) and at the V4 growth stage (CIPV4) at 5 to 7 days after treatment (the error V2 and error V4 are half of the least significant difference (LSD)). The crop injury ratings were combined for both locations.

Data set [11] deals with soybean plantlets. Briefly: High-throughput soybean screening for herbicide tolerance (plantlets). Type of data set: in vivo, soybean (A3555). Details: key: 0 for poor tolerance, high damage, low green coloration; 1 for some tolerance, average damage, moderate green coloration; 2 for good tolerance, low damage, high green coloration. To be noted: S-3100 spray five weeks post-transformation, scored day four. An excerpt: A high-throughput plant transformation and screening method was used to evaluate large numbers of constructs in transgenic plants for herbicide tolerance in early transformation plantlet tissue. This allowed for faster and higher volume screening of construct configurations and PPO enzymes.
This permitted the side-by-side comparison of seven different HemG PPO enzymes with thirty-seven different targeting peptides using the same promoter and 3′UTR elements for gene expression. These plant transformation constructs were used to transform soybean excised embryos (germplasm A3555) using A. tumefaciens and standard methods known in the art. Four hundred explants were inoculated for each construct resulting in twelve containers per construct. A sterile PPO herbicide solution was used for herbicide tolerance testing. The herbicide solution consisted of 0.3 g of S-3100 in crop oil concentrate (5.0 mL) and 495 mL of deionized water. This was filtered through a 0.45 micron Nalgene® Rapid-Flow™ Tissue Culture Filter Unit and Surfactant-Free Cellulose Acetate membrane filter unit (VWR, Radnor, PA, USA). The resulting sterile solution was shaken before application.
At five weeks post-transformation, four of the twelve plant containers per construct were sprayed with two passes of the sterile PPO herbicide solution. The treated plantlets were then enclosed in the container and received at least 15 hours of light exposure post spray each day for four days. At the end of day four post application of S-3100, the treated plantlets were photographed and scored on a visual scale of green coloration (green coloration was representative of healthy photosynthetic plant tissue as compared to photo-bleached tissue) versus damage. The scoring values were 0 for poor tolerance, high damage, low green coloration; 1 for some tolerance, average damage, moderate green coloration; and 2 for good tolerance, low damage, high green coloration. The scoring for each construct is presented in Table 9, where n.d. indicates the analysis was not conducted.

Data set [12] concerns transgenic maize plants. Put plainly: R0 transgenic maize 40 g/ha S-3100 spray test. The format is in vivo. An excerpt: H_N60 (SEQ ID NO:3). […] These five constructs had the same promoter plus leader plus intron combination, with two different targeting peptide (TP) sequences, and the same 3′UTR sequence. Leaf samples were taken from the R0 plants and analyzed by PCR to determine the transgene copy number. Single copy plants for up to 12 unique events per construct were transplanted to pots, selfed and outcrossed to generate R1 and F1 seed, respectively, for future testing. Multi-copy plants and extra single copy plants were sprayed with 40 grams/ha 5-3100 at approximately the V5 growth stage and injury ratings were taken 7 days after treatment. The average percent (%) injury for all plants expressing each PPO enzyme and the number of plants that were deemed highly tolerant (less than 10% injury) was noted, where each plant is a unique single or multi-copy transformant.

Data set [13] concerns transgenic maize plants. Put plainly: R0 multi-copy transgenic maize S-3100 spray test. Type of data set: in vivo, maize (LH244). An excerpt: For maize in planta testing, immature maize (LH244) embryos were transformed with using Agrobacterium tumefaciens and standard methods known in the art. […] Leaf samples were collected from R0 plants and screened by PCR to determine the number of copies of the transgene inserted into the plant genome. […] Plants containing multiple copies (multi-copy) were sprayed as follows: […]

The mark [14] stands for this setting: H_N10 (SEQ ID NO:4), construct 11.
Setting [15] is: 40 grams/ha S-3100 at V5, 7 days after treatment, R0 plants.

As for “H_N50 (SEQ ID NO: 7), microbial HemG protoporphyrinogen oxidase (Shimwellia blattae DSM 4481 = NBRC 105725)”, in data set [1], the Km was determined as 1.0 µM.
In the case of “H_N20 (SEQ ID NO: 2), microbial HemG protoporphyrinogen oxidase (Pantoea ananatis LMG 5342)”, the Km in data set [1] is 0.8 µM.
On to `C=Cc1c2[nH]c(c1C)Cc1[nH]c(c(CCC(=O)O)c1C)Cc1[nH]c(c(C)c1CCC(=O)O)Cc1[nH]c(c(C)c1C=C)C2` [protoporphyrinogen, protoporphyrinogen IX], for which the Km in data set [2] was 1.1 µM; in [3] it was 0.3 µM; in data set [4], 0.7 µM; in data set [5], 1.8 µM; in [6] it was 2 µM.
In the case of `C#CCN1C(=O)COc2cc(F)c(N3C(=O)C4=C(CCCC4)C3=O)cc21` [flumioxazin], in [7] (setting [14]), the average injury rating was found to be 22% and the “highly tolerant plants (15% or less injury)” value was 9%. For the same molecule, in data set [7] (non-transgenic), the average injury rating worked out at 30% and the “highly tolerant plants (15% or less injury)” value was “no highly tolerant plants”.
As to “H_N30 (SEQ ID NO: 5), microbial HemG protoporphyrinogen oxidase (Winslowiella toletana)”, the Km in data set [1] worked out at 1.0 µM.
Still for that read-out and setting: the result for “H_N10 (SEQ ID NO: 4), E. coli wild-type HemG protoporphyrinogen oxidase (Escherichia coli CFT073)” reads 0.7 µM.

B1: Waterhemp: herbicide-sensitive wild-type protoporphyrinogen oxidase from Amaranthus tuberculatus (waterhemp), SEQ ID NO:21; plastid extract in Table 3 (protein, listed as Amaranthus tuberculatus)
chain: MGNISEREEPTSAKRVAVVGAGVSGLAAAYKLKSHGLSVTLFEADSRAGGKLKTVKKDGFIWDEGANTMTESEAEVSSLIDDLGLREKQQLPISQNKRYIARDGLPVLLPSNPAALLTSNILSAKSKLQIMLEPFLWRKHNATELSDEHVQESVGEFFERHFGKEFVDYVIDPFVAGTCGGDPQSLSMHHTFPEVWNIEKRFGSVFAGLIQSTLLSKKEKGGENASIKKPRVRGSFSFQGGMQTLVDTMCKQLGEDELKLQCEVLSLSYNQKGIPSLGNWSVSSMSNNTSEDQSYDAVVVTAPIRNVKEMKIMKFGNPFSLDFIPEVTYVPLSVMITAFKKDKVKRPLEGFGVLIPSKEQHNGLKTLGTLFSSMMFPDRAPSDMCLFTTFVGGSRNRKLANASTDELKQIVSSDLQQLLGTEDEPSFVNHLFWSNAFPLYGHNYDSVLRAIDKMEKDLPGFFYAGNHKGGLSVGKAMASGCKAAELVISYLDSHIYVKMDEKTA
In the case of B1, the “growth of hemG knockout E. coli strain in the presence of a PPO herbicide” value in data set [8] is listed as “sensitive”. The “restore growth of the transformed hemG knockout E. coli strain (PPO activity)” value in data set [9] is listed as “able to restore growth”.

B2: H_N10: E. coli wild-type HemG protoporphyrinogen oxidase, SEQ ID NO:4 (SEQ ID NO:13 lacking start methionine) (protein, listed as Escherichia coli)
chain: MKTLILFSTRDGQTREIASYLASELKELGIQADVANVHRIEEPQWENYDRVVIGASIRYGHYHSAFQEFVKKHATRLNSMPSAFYSVNLVARKPEKRTPQTNSYARKFLMNSQWRPDRCAVIAGALRYPRYRWYDRFMIKLIMKMSGGETDTRKEVVYTDWEQVANFAREIAHLTDKPTLK
For B2, the “injury rates when expressed in transgenic plants (crop tolerance to a PPO herbicide)” value in data set [10] and in data set [12] (R0 transgenic maize data) was “reduced injury rates” in each case. Also, the coloration score in [11] (TP9) was 1; in data set [11] (TP12), 1; in data set [11] (TP13) it was 1; in data set [11] (TP14), 0; in data set [11] (TP16), 1; in [11] (TP18), 1. Also, the coloration score is on record as 0 in data set [11] (TP19); 0 in data set [11] (TP20); 0 in data set [11] (TP21); 1 in data set [11] (TP22); 1 in data set [11] (TP23); 0 in [11] (TP24). The coloration score is on record as 0 in [11] (TP26); 1 in data set [11] (TP27); 1 in data set [11] (TP31); 1 in data set [11] (TP33); 0 in [11] (TP36). Further, the “Average Injury” value in data set [12] (setting [15]) came to 39.5%; in data set [13] (Treatment 1: 5 g/ha S-3100 at V5 followed by 10 g/ha at V7, total 15 g/ha, 7 days after final treatment, H_N10 in construct 6), 28.9%; in data set [13] (Treatment 2: 10 g/ha S-3100 at V5, 7 days after treatment, H_N10 in construct 16) it was 24.2%. Besides, the “Highly Tolerant (number of plants with less than 10% injury)” value in data set [12] (setting [15]) came out at 31.
